Measurements taken from the DeepSol protein solubility set.

Assay: soluble on expression in E. coli; label from the status in PepcDB or PDB records

Sequence	soluble on expression in E. coli
MIRELFEKEGFTLDEEQERKFSIYLQELLRWNKVHNLTSIKKPEEIVRRHFIDSVSVVRCFERIGLDLRGKHFADVGSGAGFPGVPLKIYLKDIKLTLIESVSKKCSFLEYLKIKLNEDYRVLCTRAEKVEEKFDVVLARALGEFEEVKEILEKLSIGYVFVYKGSKLKEEWLKDYKLCELSLSFMPKSYILWKKVLEHHHHHH	not soluble
MIRLIGMEDGKTLEDLVKTKIATDTKHKPRKDAVLCSEMFLSASPEYFRPHDPSLAGEWNDERMVLFAKASITWLKTNYGDKCVRAELHLDEATPHIHAYIVPINDKTKLLSHKEMFGGDGRVGSIKLSKLQDSYAQALAPLGIERGVKGSKATHTKVKEYYQAVNSEPLTAVWSNQKLEHHHHHH	not soluble
MIRRLPMTDSRGMNSDKYGIPNIHIRTTPGPDMDKQTKQTNDSGFNSYSRKYHIPRLWYEPARGIYCSDSVSYSWFIQFLQGGIVHVLCRTSLLSISRILRKRGQKVYFGLRKRHEKLVGFASGHGLCLPGPFQHDPIAPVLLPRFPFVRQGRLVRSVLHTGLFE	not soluble
MISGHGDFPIALKESSGMIFGEENNLIAVPFFKGEGIQTLQEKYHQALKDIPEEHEVLFLVDIFGGTPYNAAASFIAEDQRMDMAAGVNLPILLEVLSLREHLALKDLLNNLKAMSQQSFQVCSEHLEKVKTANQD	not soluble
MISLIAALAVDRVIGMENAMPWNLPADLAWFKRNTLDKPVIMGRHTWESIGRPLPGRKNIILSSQPGTDDRVTWVKSVDEAIAACGDVPEIMVIGGGRVYEQFLPKAQKLYLTHIDAEVEGDTHFPDYEPDDWESVFSEFHDADAQNSHSYCFEILERR	soluble
MISLPAGSRIWLVAGITDMRNGFNGLASKVQNVLKDDPFSGHLFIFRGRRGDQIKVLWADSDGLCLFTKRLERGRFVWPVTRDGKVHLTPAQLSMLLEGINWKHPKRTERAGIRI	not soluble
MITFEKVTVENESVVKEMFKSHSLGEKKVQYCVKVDDTYIGVIDYSVQEERAVLSQLIIHFDYQGYGYGTNTYFTFEEMMKQRNVKEIKVLKEKLTEKAKSFIESFGFTSEDEEYVKKI	not soluble
MITQVNQLDELQLKDLKTLRAECKKNDGSIPNLYIHILKQHRSLPTSFLYYQNGALIGFLSIYFFYDDAVEVAVLVSPQYRRQGIAKQLIKEALPLIKSQNYFNLIFSCPSRLNDNWLTSKGFTYLHSEYFMERDDLNPILDYIRPLSFRMATLEDIPILCGLDEVCFPDKNQDSVHRFQQILNEREYEIVIAMLNNHPIGKSHIRWQTKRATLSDIAILPKEQGKGFGSALIAHCINMILSEGKSRVDLDVETHNKKALNLYIQLGFHIQNACDYWSINVNQLAK	not soluble
MITSPFERELKLLNEGELGIVQQLVESSNIGFIVDLELDGDYGWAVYKPELGEQPLWDFPPGLYKRERAAFVISEFLGWNIVPPTVIMHDAPAGVGSVQWFIENNGEHYFPLFDTRADLHPQFVRMAVFDLLCNNTDRKAGHVLLDGDHIWGIDHGLCFSVEPKLRTVIWDFAGCTIPDDLVTDVEQLLEDVPEELHQLLHPAEIDALQRRASRISRLPFLPQAKSHRQFPWPLVLEHHHHHH	soluble
MITTRLHGRLGNQMFQYAAARGLAARLGTQVALDTRLAESRGEGVLTRVFDLDLAQPDQLPPLKGDGLLRHGAWRLLGLAPRFRREHGLGYNAAIETWDDGTYLHGYWQSERYFAHIAARIRADFAFPAFSNSQNAEMAARIGDTDAISLHVRRGDYVALAAHTLCDQRYYAAALTRLLEGVAGDPVVYLFSDDPAWARDNLALPVQKVVVDFNGPETDFEDMRLMSLCRHNIIGNSSFSWWAAWLNAHPGKRIAAPASWFGDAKLHNPDLLPPDWLKIEVLEHHHHHH	not soluble
MIVDMRLRPPIPGFARSTLYQAGPKTSHPDFPVEPSVGQCSLPLLISEMDAAGVAVGVVPGRYSMEPFGIVSNDELATLFADHPGRFVGFMGLDLGWPMQRMLDEIDARVGTPGFRGVALEPTISADASFCGMNDKRLYPIYEACVKHGVPVSVTLSAVLQAFTKRPYEHSNPVQAYQVAIDFPGLDIVIAHAAYPWVMEMIGVCLTCPNVWLSPDLYLTNVFPGAQEYAKAAATYLPRRTLFGTGYPAKPFKPMIDAYAAWGWPQDVVAAILGGNAARLLRLADQLEHHHHHH	not soluble
MIVHELTDIGHLFTEQLQEGYYVIRETYQNVLVEPEDGDTVRQVDAGTEEVVTIVFDPGDEYSLICLDTYTFADGIPSLAELKETIAAEYDVFVNDRWAAPSL	not soluble
MIVIPMAGMSSRFFKAGYTQPKYMLEAHGQTLFEHSVNSFAAYFASTPFLFIVRNVYDTAVFVREKATQLGIKQFYIAELHTETRGQAETVTLGLEELAKQGVDYQGSITVFNIDTFRPNFVFPDISQHSDGYLEVFQGGGDNWSFAKPEHAGSTKVIQTAEKNPISDLCSTGLYHFNRKEDYLEAYREYVARPSQEWERGELYIAPLYNLLIQKGLNIHYHLIARHEVIFCGVPDEYTDFLRQPQPLEHHHHHH	soluble
MIVNEINSSEEVLQIEQIDVEGQRAEYNRIQQERQDYQYAMRFAVHVDQVAVQALPIPAQSPEHLVAEHSNAQVPVDARPNPPTQSPAPRAAPDHGPVQAPRNLAQALNLPRRARGRPRRSDVRRTRDAQDSVATQQGPNAEQSGILVPPASRQQPEHSATSTISAPLSPASSTNMALQNAPSDHGDQLIRDSSEDRQNVPAPRRSARIASHTQYRTSPYVSARQGHRLAIARGRAAPGTLDPSASRQSIPSTSDAPVLVPHAPPAPPSPTLQDCVICMEEPVNPKVCPKCLKMIGCAKCFRWWTVFRCWWQSSLNPSCPLCRLKWDSAPKVIAAKKFYDGK	not soluble
MIVRSYLYEKLNGDVRCKTCWHRCIIKEGKTGICRVRKNEGGELLVLNYGMASSIALDPIEKKPLNNFKPGSKVLSFGSVSCNFRCLHCQNFEIAFADLDYSYLREIDPDTVLRMCIDRRADGVAWTYNEPAIWHEFALDSSKLVKESGYYVVYVTNGYMTPEAVDQFEGVLDAANVDVKAFSEDFYKKICKAKLEHVLETVEYLHRKGVFVELTYLIIPGENDSREELRDFCRWVADLSPKIPVHFSRFHPDYKMLDKPPTPVEKIEEAVEIAKKEGIEYVYAGNVWGHRYENTYCPNCGELLIEREGFYVYNINLVRDNPPKCPNCGYAQNIIL	not soluble
MIYDVFLNFSGEDVRGTFLNHFFKELERKSIIAFKDNESERSQNLSPELTHAIRESRITVVVFSKNYSSSTWCLNELLQVYECYQSMDLPVIPIFYGLDPSHVRKQTGEFGKNFEKTCRNETEACVYQWRRALCDVSNFLGYHSPNWANEATMIEQVANDVLFKLNLTPSSDFSEFVGIEDHIAAMNSVDKR	soluble
MIYSMTAFAHLELKKEWGNAVWEMRSVNQRFLETYFRLPEQFRHLEMSLRERLRSALTRGKVECSLRIELTNSQDKELSLNKDYAEKVIGSLQTLQALAGGGQINLVDLLRYPGVVDSQTQDLDQIGQDLCAGFEEILADFIAMRAREGANLQQLIQQRLDSISKIATQVQAQMPAILQWQKEKLQQRFDELNLQLESQRLEQEIVLTAQRVDVAEELDRLQLHVKETMAILQRGGAVGRKLDFMMQELNRESNTLASKSINADVTNSAVELKVLIEQMREQIQNLE	not soluble
MIYSVGNRLGNKLTGIEKAMINRHNLFKNHSITSKLIFASWSPRLHFNASLFQIEDDDILSLYDVLQDSINIKSIHKDWITHWTKECNYTLKFIENTNDIKIYEKSNYRMYVHFNDSNYQHLDYINHFDVNQRKIRRDLYDSRGFLSCSRTLTTNQKVVCEHYYTPEGTIKFQKFFNPELENSQSQLIIYNTDSQLKYFNNDQELLAFAIEKLYKNGDIFLSDKNINTAPIFNNTSETIPVLAVLHSTHVKNIDMVYESDIKNTYKHVFNNLNRYSGIIVSTKQQQLDISARINNEIPVHTIPVGYIDEHFTNLKRNNHSINNNKIISVARYSPEKQLNHQIELVSKLIKEFPNIQLHLYGFGKEEEKYKQLITEYNLENNVFLRGFRRNLSAEIQDAYMSLITSNMEGFNLGLLETITEGIPPVGYNSKYGPSELILNNENGYLINKNDKDELYNRVRNLLLDKTLRDTFSQECIKHSKAFSSKIVMKLWEDRFSTINSSYE	not soluble
MKAFILAAGSGERLEPITHTRPKAFVPILSKPLIEYQIEYLRKCGIRDITVIVSSKNKEYFEKKLKEISIVTQKDDIKGTGAAILSAKFNDEALIIYGDLFFSNEKEICNIITLKENAIIGVKVSNPKDYGVLVLDNQNNLSKIIEKPEIPPSNLINAGIYKLNSDIFTYLDKISISERGELELTDAINLMAKDHRVKVIEYEGYWMDIGKPWNIIDVNKWALDNLVFSQNLGNVEDNVKIKGKVIIEEDAEIKSGTYIEGPVYIGKGSEIGPNSYLRPYTILVEKNKIGASVEVKESVIMEGSKIPHLSYVGDSVIAEDVNFGAGTLIANLRFDEKEVKVNVKGKRISSGRRKLGAFIGGHVRTGINVTILPGVKIGAYARIYPGAVVNRDVGYGEFFKV	soluble
MKAIITKPMCVVGDNKSTVRFETSTPNNPFVEISNQVYARLKRANAAKPFVDVKTKIKPDKAVEQIKQIEKEPNQISSETVTEETSLEKPKASKASKPSTPTPKKA	not soluble
MKALNREVIEYFKEHVNPGFLEYRKSVTAGGDYGAVEWQAGSLNTLVDTQGQEFIDCLGGFGIFNVGHRNPVVVSAVQNQLAKQPLHSQELLDPLRAMLAKTLAALTPGKLKYSFFCNSGTESVEAALKLAKAYQSPRGKFTFIATSGAFHGKSLGALSATAKSTFRKPFMPLLPGFRHVPFGNIEAMRTALNECKKTGDDVAAVILEPIQGEGGVILPPPGYLTAVRKLCDEFGALMILDEVQTGMGRTGKMFACEHENVQPDILCLAKALGGGVMPIGATIATEEVFSVLFDNPFLHTTTFGGNPLACAAALATINVLLEQNLPAQAEQKGDMLLDGFRQLAREYPDLVQEARGKGMLMAIEFVDNEIGYNFASEMFRQRVLVAGTLNNAKTIRIEPPLTLTIEQCELVIKAARKALAAMRVSVEEA	not soluble
MKANQLDILIVPGYKGSDPDHWQTRWEKKLSTARRVQQTHWSKPICEEWVNEVKIAIAQSQKPIVIIAHSLGVPTTIHATLKNAEKVRGAFFVAPPDVSNEKIRPKHLMTFGPYHCKKLSFPSVVIASRNDEFCQFSVAEKLAGDWGALFVDAGLSGHINVESGHGPWPEGLMVFSHFLAKI	not soluble
MKANSDELQSFVSVVDSGSISAAAEQMGLTASAVSRTLSRLEHKLGTTLLNRTTRRMELTEEGRYFLDQARQILQQMEALEERLALRRQSPAGRLRINAASPFMLHAVVPHIGEFRRLYPDIQLELNTNDLIIDLLEQRTDVAIRIGALSDSTLHARPLGASRLHILASPEYLARHGTPASIEGLRGHTLLGFTQPEHLNRWPVVHADGDRLEIQPDISASSGETLRQLALSHQGIACLASFMTDRDIQDGRLVPLFAEQMSEYRQPIHAVYYRNSQLALRIQCFLDFIQQRLGA	not soluble
MKAVVQRVTRASVTVGGEQISAIGRGICVLLGISLEDTQKELEHMVRKILNLRVFEDESGKHWSKSVMDKQYEILCVSQFTLQCVLKGNKPDFHLAMPTEQAEGFYNSFLEQLRKTYRPELIKDGKFGAYMQVHIQNDGPVTIELESPAPGTATSDPKQLSKLEKQQQRKEKTRAKGPSESSKERNTPRKEDRSASSGAEGDVSSEREP	soluble
MKDFITEAWLRANHTLSEGAEIHLPADSRLTPSARELLESRHLRIKFIDEQGRLFVDDEQQQPQPVHGLTSSDEHPQACCELCRQPVAKKPDTLTHLSAEKMVAKSDPRLGFRAVLDSTIALAVWLQIELAEPLGCQAIVGLSDEDLHRLSHQPLRYLGHDHLVPEASHGRDAALLNLLRTKVREAETVAAQVFITRSFEVLRPDILQALNRLSSTVYVMMILSVTKQPLTVKQIQQRLGETQ	not soluble
